Measurements reported in the supplement of paper PMC10567573.
± gives the standard deviation.

Test: protein stability index of a GFP-peptide fusion (GPS, HEK-293T) (PSI 1-6); higher = more stable
[1] = treatment: DMSO, c terminus: a fixed tail appended
[2] = treatment: MLN4924 1 uM, 8 h, c terminus: a fixed tail appended
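Further: 24-mer peptide tiles fused after GFP, lentivirally expressed, FACS-sorted into six equal bins by GFP/DsRed ratio, decoded by Illumina sequencing, PSI is the read-weighted mean bin number.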

VNPLHVDSTWLLLRRIRAESGTKG [SLC25A39] showed a protein stability index [1] of 2.83 ± 0.3 and a protein stability index [2] of 2.74 ± 0.33.

HECVNMEESYYCRCHRGYTLDPNG [MATN2] showed a protein stability index [1] of 3.44 ± 0.67 and a protein stability index [2] of 3.36 ± 0.52.

Work on HTLNNLVEKLLREEAEGARWTSYR [TRIM35] yielded a protein stability index [1] of 2.48 ± 0.2 and a protein stability index [2] of 2.57 ± 0.19.

AQLRLQLEVSQLEGSLQQPKAQSA [SMG5] gave a protein stability index [1] of 3.66 ± 0.24 and a protein stability index [2] of 3.7 ± 0.28.

GPGAHILRRKSPASGQGPMCNVKA [ADAMTS4] showed a protein stability index [1] of 4.05 ± 0.34 and a protein stability index [2] of 3.76 ± 0.36.

KMETMYPFIVTLEGNALQGPILQK [ZNF449] gave a protein stability index [1] of 2.53 ± 0.24 and a protein stability index [2] of 2.48 ± 0.33.

HDEDIKTTNVKSASRQKTSLGIEL [ZNF396] gave a protein stability index [1] of 4.5 ± 0.27 and a protein stability index [2] of 4.58 ± 0.14.

With VERYHNLCQKQVKAQLPRRESERR [FBXO28] the protein stability index [1] was 4.08 ± 0.31 and the protein stability index [2] was 3.99 ± 0.08.

For FRFAPNHTKELEDKVIELHKSHRG [EPB41L3], the protein stability index [1] was 2.88 ± 0.58 and the protein stability index [2] was 3.2 ± 0.68.

Sequence EEMAKSSRASAARVGQLQEALNER [LRRC45] has a protein stability index [1] of 4.97 ± 0.46 and a protein stability index [2] of 5.12 ± 0.28.

In the case of SQEYQILLDVKTRLEQEIATYRRL [KRT16], the protein stability index [1] is reported as 2.71 ± 0.34 and the protein stability index [2] is reported as 2.88 ± 0.44.

In the case of QQQHIECVVCGDKSSGKHYGQFTC [NR2F2], the protein stability index [1] is reported as 3.06 ± 0.24 and the protein stability index [2] is reported as 3.12 ± 0.48.

For FSDDEEDLNSKGKKREFRFHPIKE [INTS3], the protein stability index [1] was 3.48 ± 0.68 and the protein stability index [2] was 4.04 ± 0.71.

ESRIVEQENAIQTMELRNYFSLYC [SNX8] gave a protein stability index [1] of 2.62 ± 0.3 and a protein stability index [2] of 2.61 ± 0.19.

DDNSCEDLEEERREEEEKTPPETK [PCMTD2] gave a protein stability index [1] of 5.73 ± 0.34 and a protein stability index [2] of 5.54 ± 0.25.

In the case of LHTDVGSVRMRRAEKSVAPSNTGS [NEK8], the protein stability index [1] is reported as 4.58 ± 0.22 and the protein stability index [2] is reported as 4.73 ± 0.14.

Work on MLTRRVLQLETVLEGVVSQIDAVG [PKD2L1] yielded a protein stability index [1] of 2.29 ± 0.49 and a protein stability index [2] of 2.46 ± 0.51.

With LAQQLCTALLFLATPELSIIHCDL [DYRK1B] the protein stability index [1] was 3.04 ± 0.42 and the protein stability index [2] was 3.23 ± 0.42.

IPRGFPTIDMGPQLKVVERTRTAT [PTPRD] showed a protein stability index [1] of 3.92 ± 0.24 and a protein stability index [2] of 3.68 ± 0.37.

YIWEKSIGNLVKILHGTRGELLLD [RBBP5] gave a protein stability index [1] of 2.65 ± 0.52 and a protein stability index [2] of 3.09 ± 0.29.

Work on QNPKDCSKAKKLVCNINKGCGYGC [FUT8] yielded a protein stability index [1] of 3.53 ± 0.1 and a protein stability index [2] of 3.48 ± 0.17.

With VEYKDIASIHWDWKIALLFVAFAL [SLC35F2] the protein stability index [1] was 2.81 ± 0.8 and the protein stability index [2] was 2.74 ± 0.32.

MVRRLKMVVKTFMDMDQDSEEEKE [PDS5B] showed a protein stability index [1] of 2.73 ± 0.38 and a protein stability index [2] of 3.13 ± 0.26.

In the case of LMIIVCIDQWKNKIWPEIKVPRPD [RETREG3], the protein stability index [1] is reported as 2.81 ± 0.43 and the protein stability index [2] is reported as 2.82 ± 0.45.

IKQKLGMNLMNELKQNFSKSWHDM [TPD52L1] gave a protein stability index [1] of 2.09 ± 0.2 and a protein stability index [2] of 1.98 ± 0.35.

In the case of QREEHELVHVMERSLSPSLSSVDM [RAD54B], the protein stability index [1] is reported as 4.62 ± 0.31 and the protein stability index [2] is reported as 4.76 ± 0.11.

Sequence NIYYYLEDDSMSVIEPVVENSGIL [EFHC1] has a protein stability index [1] of 2.45 ± 0.43 and a protein stability index [2] of 2.41 ± 0.42.

In the case of VLCPECENPETDLHVNPKKQTIGN [EIF5], the protein stability index [1] is reported as 4.3 ± 0.3 and the protein stability index [2] is reported as 4.54 ± 0.15.

DEYQYSFWDLFRSKDNMRTRIMIG [SLC2A12] gave a protein stability index [1] of 1.85 ± 0.38 and a protein stability index [2] of 2.14 ± 0.38.

For AGLAPPSLFARAMQVLVTAISPGR [ANKRD9], the protein stability index [1] was 2.29 ± 0.1 and the protein stability index [2] was 2.29 ± 0.18.

Sequence IAMTSGTVQPKQDAFANFANFSK [CLINT1] has a protein stability index (treatment: DMSO, c terminus: native) of 4.22 ± 0.22 and a protein stability index (treatment: MLN4924 1 uM, 8 h, c terminus: native) of 4.17 ± 0.31.

For LNWKMTLCLLVAWSIVGMAVVKGI [SLC6A17], the protein stability index [1] was 2.61 ± 0.67 and the protein stability index [2] was 2.45 ± 0.48.

DGGSSLASGSTQRQPPPPAPQHPQ [FBXO28] gave a protein stability index [1] of 5.22 ± 0.34 and a protein stability index [2] of 5.18 ± 0.35.

In the case of VGGATPDQTTSEETVGGAILDQTT [HDAC6], the protein stability index [1] is reported as 5.48 ± 0.49 and the protein stability index [2] is reported as 5.43 ± 0.35.

QGIFVEKYDPTIEDSYRKQVEVDA [RAP1B] gave a protein stability index [1] of 4.72 ± 0.11 and a protein stability index [2] of 4.44 ± 0.12.

QSGFEMLKDVKSTLEKCEKVKTME [TRIM39] showed a protein stability index [1] of 5.11 ± 0.2 and a protein stability index [2] of 4.86 ± 0.2.

In the case of RADVDHAIEKAFQLWSNVTPLTFT [MMP1], the protein stability index [1] is reported as 2.13 ± 0.2 and the protein stability index [2] is reported as 2.44 ± 0.32.

For RTSSGTSREKTACAINKVGVSFST [FAM98B], the protein stability index [1] was 3.29 ± 0.29 and the protein stability index [2] was 3.87 ± 0.46.

NKAAVMVHQLSKKEASRHAIMRSP [CTNNB1] gave a protein stability index [1] of 3.86 ± 0.16 and a protein stability index [2] of 3.8 ± 0.2.

In the case of DFEHRPKAPVVECSITGDSSRVIA [WDR88], the protein stability index [1] is reported as 4.36 ± 0.26 and the protein stability index [2] is reported as 4.49 ± 0.17.

For HGPQLPTGIEGNWGRLLEQVGTMA [ZBED2], the protein stability index [1] was 3 ± 0.35 and the protein stability index [2] was 3.08 ± 0.24.

Sequence TKSHIMLVQRQMSVIEEDLEEFQL [NECAB1] has a protein stability index [1] of 3.22 ± 0.21 and a protein stability index [2] of 3.12 ± 0.21.

QGLIRAGKVEAQHILASAPTDRNL [PYCR3] showed a protein stability index [1] of 3.96 ± 0.16 and a protein stability index [2] of 4.07 ± 0.4.

For CASKYGRDWERYTAAVPYRLLPGI [DHCR7], the protein stability index [1] was 2.05 ± 0.24 and the protein stability index [2] was 2.2 ± 0.21.
